Broadly, the Km is the concentration of substrate that gives half-maximal velocity.

Consider 1 protein from article PMC4773448, “Isolation and Characterization of a Novel Cold-Adapted Esterase, MtEst45, from Microbulbifer thermotolerans DAU221” (Frontiers in Microbiology, 2016).

Substrate in the data set: CCCC(=O)Oc1ccc([N+](=O)[O-])cc1
In words: purified protein. Type of data set: biochemical, Microbulbifer thermotolerans. To be noted: 20 mM Tris-HCl pH 8.17, 46.27 °C, 0.1-1 mM substrate.

B1: MtEst45 (Microbulbifer thermotolerans) (protein)
chain: APRFISNLDIISFDGTELDANLFVPDTPPPDGGYPTVLFTNSWALDKHQYLLQAKALAEKGYLVMSYSTRGFGKSGGLVDVAGDNTLADTRVLIDWLEANYPVGKLGMAGISYGAGISLLTAAADSRVDAVAALSGWSDVVEGLYPNNTVNLVWGTLLVNTAFKREPIVDQIWSNLRNGHNLSDVFTFSASRSALSYVDALNANGTAVLLSNNFADYLFKPNSTIDLYTLLEGPKKLLLNPGTHAVTETLGGNGGHIWTTSFRWFDRYLKGENNGIDREPKVDMTVRISNRLEQFDDFPVTGKQSHWYLHPRLTYFGNGQLKSNPYSGWRWSNQFHSGADTAAGTGIPLVSDALEGLGIPVYTFMPAINGYYAIEYQSPLLWNGMKIRGTPTLEMWITPSKPEVQLHLHLYDTGPLGMGRLITHAPITLRNAQVGREQKIDVEFFTTSYDVPAGHRVTLAIDTEGLIYQKPADTDYEITVPYRSDRVSKLAIPQL
notes: mature form without 21-residue signal peptide (495 aa of 516); N-terminal His6 (pCold I), E. coli BL21(DE3), tag not reported cut; about 45 kDa on SDS-PAGE
B1: the Km was 99.8 µM.
